This note sets out measurements from patent US20230285581A1.

The target in test [1] is human MSR1 extracellular domain expressed with a N-terminal nonahistidine tag (His9-hMSR1; R&D Systems, Cat #2708-MS) (human) (UniProt P21757). The test can be described thus: competition ELISA; 100 nM antibody, competitor Ac-LDL, plate-coated His9-hMSR1.
Test [2] has the same target. The test can be described thus: competition ELISA; 300 nM antibody, competitor biot-AGE-BSA, plate-coated His9-hMSR1. For orientation: An ELISA detects its analyte on a solid surface through an enzyme-linked reagent.
In test [3] the target is endogenously expressed human MSR1 on PMA-treated THP-1 cells (human) (UniProt P21757). The test can be described thus: ECL cell binding, PMA-treated THP-1 cells.
In test [4] the target is full length human MSR1 with a C-terminal Myc tag on HEK293.Myc.hMSR1 cells (human) (UniProt P21757). The test can be described thus: ECL cell binding, HEK293.Myc.hMSR1 cells.
Test [5] deals with human MSR1 extracellular domain expressed with a N-terminal nonahistidine tag (His9-hMSR1; R&D Systems, Cat #2708-MS) (human) (UniProt P21757). Nature of the test: competition ELISA; 500 nM antibody, competitor 5 nM Ox-LDL, plate-coated His9-hMSR1.
Test [6] has as its target full length monkey MSR1 on HEK293.mfMSR1 cells (Macaca fascicularis). The test can be described thus: ECL cell binding, HEK293.mfMSR1 cells.
The target of test [7] is human MSR1 extracellular domain expressed with a N-terminal nonahistidine tag (His9-hMSR1; R&D Systems, Cat #2708-MS) (human) (UniProt P21757). Nature of the test: competition ELISA; 1 µM antibody, competitor 10 nM Ox-LDL, plate-coated His9-hMSR1.
For test [8], the target named is mouse MSR1 on RAW264.7 cells (mouse) (UniProt P30204). Nature of the test: flow cytometry, RAW264.7 cells, 10 ug/mL.
mouse MSR1 on RAW264.7 cells (mouse), sequence (P30204 whole entry): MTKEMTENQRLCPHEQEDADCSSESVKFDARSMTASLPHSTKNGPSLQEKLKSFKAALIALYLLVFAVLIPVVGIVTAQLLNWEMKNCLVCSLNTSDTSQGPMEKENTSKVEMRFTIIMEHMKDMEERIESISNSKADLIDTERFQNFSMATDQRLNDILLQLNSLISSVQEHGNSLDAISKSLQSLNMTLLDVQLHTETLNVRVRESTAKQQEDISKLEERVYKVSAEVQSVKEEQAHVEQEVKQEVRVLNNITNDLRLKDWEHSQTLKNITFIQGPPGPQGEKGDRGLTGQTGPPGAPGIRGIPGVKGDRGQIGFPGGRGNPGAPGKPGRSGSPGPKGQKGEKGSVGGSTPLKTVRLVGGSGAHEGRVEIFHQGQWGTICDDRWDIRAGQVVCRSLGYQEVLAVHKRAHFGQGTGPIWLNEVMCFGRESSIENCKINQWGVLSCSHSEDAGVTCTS

human MSR1 extracellular domain expressed with a N-terminal nonahistidine tag (His9-hMSR1; R&D Systems, Cat #2708-MS) (human), sequence (P21757 other isoform, or with tags, fused parts or gaps): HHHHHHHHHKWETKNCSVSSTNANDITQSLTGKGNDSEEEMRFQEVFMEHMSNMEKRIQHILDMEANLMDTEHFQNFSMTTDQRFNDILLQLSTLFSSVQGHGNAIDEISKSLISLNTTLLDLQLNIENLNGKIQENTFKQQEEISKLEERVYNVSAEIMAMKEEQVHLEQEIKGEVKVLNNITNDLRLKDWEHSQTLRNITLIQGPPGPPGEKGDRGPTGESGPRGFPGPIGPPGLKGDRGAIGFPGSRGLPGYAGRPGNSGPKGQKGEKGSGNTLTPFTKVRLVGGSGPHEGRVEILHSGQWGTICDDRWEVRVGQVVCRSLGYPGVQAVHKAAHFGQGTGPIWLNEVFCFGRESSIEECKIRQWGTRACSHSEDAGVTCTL
endogenously expressed human MSR1 on PMA-treated THP-1 cells (human), sequence (P21757 whole entry): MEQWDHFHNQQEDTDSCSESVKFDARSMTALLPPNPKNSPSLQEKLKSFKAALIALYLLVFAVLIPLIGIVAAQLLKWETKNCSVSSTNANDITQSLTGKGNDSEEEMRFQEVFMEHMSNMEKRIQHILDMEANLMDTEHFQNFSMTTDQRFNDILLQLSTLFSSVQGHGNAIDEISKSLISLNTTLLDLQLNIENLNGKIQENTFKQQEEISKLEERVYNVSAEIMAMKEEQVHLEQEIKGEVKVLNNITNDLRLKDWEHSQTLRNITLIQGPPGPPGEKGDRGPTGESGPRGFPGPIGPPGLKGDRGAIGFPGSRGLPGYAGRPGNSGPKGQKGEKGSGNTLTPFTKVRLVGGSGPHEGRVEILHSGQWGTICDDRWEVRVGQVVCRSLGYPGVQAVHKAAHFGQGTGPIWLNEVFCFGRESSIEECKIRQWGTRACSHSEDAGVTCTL
full length human MSR1 with a C-terminal Myc tag on HEK293.Myc.hMSR1 cells (human), sequence (P21757 whole entry, the tested form may be a part): as the sequence (P21757 whole entry) above
full length monkey MSR1 on HEK293.mfMSR1 cells (Macaca fascicularis), sequence (chain, as listed by the source): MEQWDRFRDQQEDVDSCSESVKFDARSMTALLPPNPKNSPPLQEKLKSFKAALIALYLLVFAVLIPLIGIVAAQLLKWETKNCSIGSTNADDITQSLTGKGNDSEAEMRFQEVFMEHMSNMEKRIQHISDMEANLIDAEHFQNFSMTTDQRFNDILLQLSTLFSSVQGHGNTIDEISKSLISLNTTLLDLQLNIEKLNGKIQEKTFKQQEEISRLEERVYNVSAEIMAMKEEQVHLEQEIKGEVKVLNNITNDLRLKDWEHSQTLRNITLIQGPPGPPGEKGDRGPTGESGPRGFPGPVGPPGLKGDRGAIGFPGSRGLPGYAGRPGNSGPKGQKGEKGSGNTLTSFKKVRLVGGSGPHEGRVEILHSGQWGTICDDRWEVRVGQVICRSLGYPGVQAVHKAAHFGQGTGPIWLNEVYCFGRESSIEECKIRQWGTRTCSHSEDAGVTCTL

B1: H2aM21229N (antibody, mouse IgG2a, V domains shown)
VH: EVQLVESGGGLVKPGGSLRLSCAASGFTFSRYSMNWVRQAPGKGLEWVSSISSSSSYIYYGDTVKGRFTISRDNAKKSLYLQMNSLRAEDTAVYYCVRDRGQLVLYFDYWGQGTLVTVSS
VL: DIQMTQSPASLSTSIRDRVTITCRASLSISSFLNWFQQRPGKAPKLLIYVASNLQSGVPSRFSDSGSGTDFTLTISSLQPEDFATYYCQQNYSTPPITFGQGTRLEIK
Turning to B1, the values for the % Blocking in test [1], in test [2] and in test [5] were -11%, 3% and 38%, respectively. The values for the ratio of 11 nM antibody binding signal (RLU) to isotype control in test [3] and in test [4] were 56 and 78, respectively.

B2: H1H27747P-N297Q (antibody, human IgG1, V domains shown)
VH: QVQLVESGGAVVQPGRSLRLSCAASGFTFSYYGMHWVRQAPGKGLEWVAVISYDGSKKYYADSVKGRFTISRDNSKNTLYLQMNSLRAEDTAVYYCAKDLTVDFYYGMDVWGQGTTVTVSS
VL: DIQMTQSPSSVSASVGDRVTITCRASQGISSWLAWYQQKPGKAPKLLIYATSSLQSGAPSRFSGSGSGTDFTLTISSLQPEDFATYFCQQANSFPYTFGQGTKLEIKR
Turning to B2, the ratio of 11 nM antibody binding signal (RLU) to isotype control was determined as 21 in test [6], 13 in test [3] and 26 in test [4]. In addition, the values for the % Blocking in test [7], in test [1] and in test [2] were -31%, -44% and -2%, respectively. Further, the MFI in test [8] is 3630. In test [8], this molecule yielded a S/N of 1.

B3: H1H27754P-N297Q (antibody, human IgG1, V domains shown)
VH: EVQLVESGGGLVQPGGSLRLSCAASGFTFRTYAMTWVRQAPGKGLDWVSAITGDGGNTYYADSVKGRFTISRDNSKNTLYLQMNSLRAEDTAIYYCAKDQRFSFALYYFDYWGQGTLVTVSS
VL: DIQMTQSPSSVSASVGDRVTITCRASQGISSWLAWYQQKPGNAPKLLIYAAFSLQSGVPSRFSGSGSGTDFTLTISSLQPEDFATYYCQQANNFPWTFGQGTKVEIKR
Take B3: the ratio of 11 nM antibody binding signal (RLU) to isotype control is 53 in test [6], 66 in test [3] and 55 in test [4]. The % Blocking in test [7] was -44%; in test [1], -42%; in test [2], -9%. Moreover, the MFI in test [8] amounted to 5410. The S/N in test [8] came to 1.

B4: H1H27739P-N297Q (antibody, human IgG1, V domains shown)
VH: EVQLVESGGGLVQPGGSLRLSCTASGFTFSSYAMSWVRQAPGKGLEWVSAISGTGSSTYFTDSVKGRFAISRDNSKNTLYLQMNSLRAEDTAVYYCAKDGEWLSTVTLFDYWGQGTLVTVSS
VL: EIVMTQSPATLSVSPGERATLSCRASQSVSSNLAWYQQKPGQAPRLLIYGASTRATGIPARFSGSGSGTDFTLTISSLQSEDFALYYCQQYFIWPPHPTFGPGTKVDIKR
Regarding B4, the ratio of 11 nM antibody binding signal (RLU) to isotype control came out at 20 in test [6], 9 in test [3] and 22 in test [4]. The results for the % Blocking in test [7], in test [1] and in test [2] were -41%, -47% and -9%, respectively. The same molecule had an MFI in test [8] of 3270. The S/N in test [8] amounted to 1.

B5: H1H27734P-N297Q (antibody, human IgG1, V domains shown)
VH: EVQLVESRGGLVQPGGSLRLSCAASGFTFSSYAMSWVRQAPGKGLEWVSAISGSGGSTFYADSVKGRFTISRDNSKNTVYLQMNSLRAEDTAVYYCAKALVLRFLEWLGDYWGQGTLVTVSS
VL: DIQMTQSPSTLSASVGDRVTITCRASQSISSWLAWFQQKPGKAPKLLIYKASSLESGVPSRFSGSGSGTEFTLTISSLQPDDFATYYCQQYKSYWTFGQGTKVEIKR
With B5, the ratio of 11 nM antibody binding signal (RLU) to isotype control in test [6] was determined as 28; in test [3] it was 21; in test [4] it was 40. In addition, the % Blocking in test [7] was -15%; in test [1], -38%; in test [2], -4%. This molecule also displayed an MFI in test [8] of 4780. Moreover, in test [8], the S/N came out at 1.
